Experimental data reported in patent US20100196385A1 (AstraZeneca / MedImmune, published 2010).

Columns and labels:
full length human DLL4 [1] = molecular target: T1, full length human DLL4 (human, UniProt Q9NR61 27-685); test: FACS titration, HEK293 cells with human DLL4
T1 construct: whole, on cells; also called native DLL4 expressed in HEK293 cells
Procedure: The binding affinities of the purified antibodies for DLL4 was estimated using is both FACS and BIAcore techniques. […] The cells were then washed and incubated with goat anti-human IgG-Fc-Cy5+5 μg/mL 7-Amino-Actinomycin (7AAD) for 30 minutes at 4° C.
In this equation, F=mean fluorescence, LT=total molecular mAb concentration, P′=proportionality constant that relates arbitrary fluorescence units to bound mAb, M=cellular concentration in molarity, n=number of receptors per cell, B=background signal, and KD=equilibrium dissociation constant. For each mAb titration curve an estimate for KD is obtained as P′, n, B, and KD are allowed to float freely in the nonlinear analysis. Table 20 summarizes the affinity estimates for the anti-DLL4 antibodies for human and cynomolgus monkey DLL4 derived using the methodology described above

full length human DLL4 [2] = molecular target: T1, full length human DLL4; test: FACS competition vs human Notch1/Fc, HEK293 cells with human DLL4
Procedure: (§1) Further experiments were performed on selected antibodies using HEK293 cells that were stably transfected with either human, mouse or cynomolgus monkey DLL4 using retroviral constructs. In these experiments, anti-DLL4 antibodies (final concentration: 10-0.01 μg/ml) diluted in PBS containing 2% FCS were added to DLL4-expressing HEK 293 cells (50000 cells/well diluted in PBS containing 2% FCS) and incubated for 1 h at 4° C. Subsequently, Alexa-647 labeled human, rat or APC labeled mouse Notch1/Fc (e.g. R&D Systems, catalog #3647-TK-050, 1057-TK-050, 5267-TK-050, respectively) was added at a final concentration of 0.01-0.5 μg/ml and plates were incubated for a further 2 h at 4° C. prior to washing and reading on a FACSCalibur instrument.

[3] = molecular target: T2, human soluble DLL4 (R&D systems catalog #1056-D4-050) (human, UniProt Q9NR61 27-524); test: Biacore T100, antibody immobilised, soluble human DLL4 as analyte
T2 construct: Catalog number as printed; perhaps the same product as #1506-D4; also called antigen DLL4
Procedure: For Biacore analysis, each purified anti-DLL4 antibody was immobilized on a CM5 sensor chip within a T100 using standard amine coupling. Immobilization levels were kept below 200 RU. The concentration of DLL4 was determined by UV-VIS spectroscopy using a molar absorptivity at 280 nm of 110, 440 M⁻¹cm⁻¹, which was calculated from the sequence of the protein using a method developed by Pace et al. (G. R. Grimsley and C. N. Pace (2003) in Current Protocols in Protein Science (John Wiley & Sons, Inc.), 3.1.1-3.1.9). The antigen DLL4 (R&D systems; human catalog #1056-D4-050 or mouse, catalog #1389-D4-050) was diluted to a starting concentration of 32-64 nM and tested in a 3-fold dilution series in triplicate. The running buffer contained HBS-P with 0.1 mg/ml BSA and binding responses were collected at 23° C. Bound complexes were regenerated with a 15 s pulse of 10 mM of sodium hydroxide. The response data were globally fitted with a simple 1:1 interaction model and Table 20 summarizes the kₐ, kd and KD estimates obtained for the anti-DLL4 antibodies when binding to human soluble DLL4 was assessed.

full length human DLL4 [4] = molecular target: T1, full length human DLL4; test: FACS binding, HEK293 cells with human DLL4
Procedure: (§2) The activity of the mutated antibodies was assessed in two ways: firstly, the ability of the antibodies to block the binding of soluble Notch1/Fc to full length human DLL4 stably expressed in HEK293 cells as described in Example 3 was determined and, secondly, the binding of the antibodies to the same cell line used in the receptor-ligand competition studies was determined. For the binding studies, HEK293 cells stably overexpressing human DLL4 were resuspended in PBS containing 2% FCS at a concentration of 50,000 cells/well and incubated with titrations of antibody (final concentrations 0.01-10 μg/ml) for 1 h at 4° C. The cells were then washed and incubated with 0.31 μg/ml anti-human IgG-Fc-FITC (BD Pharmingen, cat#555786) for 30 minutes at 4° C. Bound […] was detected using FACS analysis. Results of these studies are summarized in Table 23, which show the effects of specific mutations to sequences of 9G8 and 2H10 on the ability of the antibodies to compete with Notch1 for binding to human DLL4 or to bind to human DLL4 relative to unmutated antibodies.

full length human DLL4 [5] = molecular target: T1, full length human DLL4; test: FACS competition vs Notch1/Fc, HEK293 cells with human DLL4
Procedure: as §1, §2

T2 sequence (Q9NR61 27-524 limits assumed): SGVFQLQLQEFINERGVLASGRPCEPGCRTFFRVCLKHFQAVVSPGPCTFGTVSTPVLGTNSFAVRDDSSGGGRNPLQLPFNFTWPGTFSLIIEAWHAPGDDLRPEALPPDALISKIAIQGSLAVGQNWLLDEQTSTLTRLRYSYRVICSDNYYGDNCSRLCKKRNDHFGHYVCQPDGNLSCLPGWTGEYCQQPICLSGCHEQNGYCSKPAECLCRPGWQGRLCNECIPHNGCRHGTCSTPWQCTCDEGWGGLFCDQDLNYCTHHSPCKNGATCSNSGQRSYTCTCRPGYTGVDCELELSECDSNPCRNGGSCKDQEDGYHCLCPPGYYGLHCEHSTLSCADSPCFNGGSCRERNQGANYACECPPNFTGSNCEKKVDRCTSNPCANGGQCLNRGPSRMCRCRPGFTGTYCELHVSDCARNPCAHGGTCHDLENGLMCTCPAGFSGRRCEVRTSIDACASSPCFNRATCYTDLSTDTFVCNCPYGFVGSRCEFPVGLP
T1 sequence (Q9NR61 27-685): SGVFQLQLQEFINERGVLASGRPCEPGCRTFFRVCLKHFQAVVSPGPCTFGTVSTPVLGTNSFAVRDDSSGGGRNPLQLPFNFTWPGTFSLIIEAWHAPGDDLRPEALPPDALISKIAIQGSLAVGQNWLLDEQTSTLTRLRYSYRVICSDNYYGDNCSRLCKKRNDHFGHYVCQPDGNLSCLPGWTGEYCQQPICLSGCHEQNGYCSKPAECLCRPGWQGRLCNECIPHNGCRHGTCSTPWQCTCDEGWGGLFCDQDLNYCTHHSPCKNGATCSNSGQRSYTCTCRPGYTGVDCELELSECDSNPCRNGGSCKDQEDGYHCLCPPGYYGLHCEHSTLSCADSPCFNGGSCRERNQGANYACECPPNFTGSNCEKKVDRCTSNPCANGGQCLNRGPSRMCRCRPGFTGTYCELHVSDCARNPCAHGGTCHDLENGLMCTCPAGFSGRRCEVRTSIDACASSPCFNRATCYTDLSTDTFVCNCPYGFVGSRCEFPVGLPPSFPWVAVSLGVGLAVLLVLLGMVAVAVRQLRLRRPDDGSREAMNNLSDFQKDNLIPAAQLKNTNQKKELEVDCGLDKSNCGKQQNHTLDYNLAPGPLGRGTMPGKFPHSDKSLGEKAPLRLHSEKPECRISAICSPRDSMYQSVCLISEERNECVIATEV

Row | Kd (full length human DLL4 [1]) [nM] | IC50 (full length human DLL4 [2]) [nM] | Kd [3] [nM] | koff [3] [s⁻¹] | kon [3] [M⁻¹ s⁻¹] | EC50 (full length human DLL4 [4]) [µg/mL] | IC50 (full length human DLL4 [5]) [µg/mL] | Binder
1 | 0.103 | 0.57 | 0.594 | 0.000171 | 288000 | – | – | 21H3 IgG1 (antibody, V domains shown, Formatted as IgG1) VH: QVQLVQSGAEVKKPGASVKVSCKASGYTFTNYGITWVRQAPGQGPEWMGWISAYNGNTNYAQKLQDRVTVTTDTSTSTAYMELRSLRSDDTAVYYCARDRVPRIPVTTEAFDIWGQGTMVTVSS VL: QSVLTQPPSASGTPGQRVTISCSGSSSNIGSYFVYWYQQLPGTAPKLLIYRNNQRPSGVPDRFSGSESGTSASLAISGLRSEDEADYYCAAWDDSLSGHWVFGGGTRLTVL
2 | – | – | – | – | – | 0.082 | 0.181 | 9G8 IgG2 VH wt/VL S7P (antibody, V domains shown, IgG2) VH: QLQLQESGPGLVKPSETLSLSCTVSGGSISSSSSYWGLIRQPPGKGLEWIGSIYYSGSTYYSPSLKSRVSISVDTSKNQFSLKLSSVTAADTAVYFCARQGYGGHPDVFDIWGQGTMVTVSS VL: SSELTQPPSVSVSPGQTARITCSGDKLGDVYVCWYQQKTGQSPVLVIYEDTKRPSGIPERFSGSNSGNTATLTISGTQVMDEADYYCQAWDSTTAVIFGGGTKLTVL
3 | – | – | – | – | – | 0.095 | 0.211 | 9G8 IgG2 VH wt/VL V79A (antibody, V domains shown, IgG2) VH: QLQLQESGPGLVKPSETLSLSCTVSGGSISSSSSYWGLIRQPPGKGLEWIGSIYYSGSTYYSPSLKSRVSISVDTSKNQFSLKLSSVTAADTAVYFCARQGYGGHPDVFDIWGQGTMVTVSS VL: SSELTQSPSVSVSPGQTARITCSGDKLGDVYVCWYQQKTGQSPVLVIYEDTKRPSGIPERFSGSNSGNTATLTISGTQAMDEADYYCQAWDSTTAVIFGGGTKLTVL
4 | – | – | – | – | – | 0.067 | 0.136 | 9G8 IgG2 VH wt/VL C33S (antibody, V domains shown, IgG2) VH: QLQLQESGPGLVKPSETLSLSCTVSGGSISSSSSYWGLIRQPPGKGLEWIGSIYYSGSTYYSPSLKSRVSISVDTSKNQFSLKLSSVTAADTAVYFCARQGYGGHPDVFDIWGQGTMVTVSS VL: SSELTQSPSVSVSPGQTARITCSGDKLGDVYVSWYQQKTGQSPVLVIYEDTKRPSGIPERFSGSNSGNTATLTISGTQVMDEADYYCQAWDSTTAVIFGGGTKLTVL

The remaining lines, values behind:

Row | Binder | Kd (full length human DLL4 [1]) [nM] | IC50 (full length human DLL4 [2]) [nM] | Kd [3] [nM] | koff [3] [s⁻¹] | kon [3] [M⁻¹ s⁻¹] | EC50 (full length human DLL4 [4]) [µg/mL] | IC50 (full length human DLL4 [5]) [µg/mL]
5 | 4B4 IgG1 (antibody, V domains shown, Formatted as IgG1) VH: QVLLIQSGAEVKKPGASVQVSCKASGYTFTNYGVIWVRQAPGQGLEYMGWISAYNGNTNYAQKLQDRVTMTSDTSTTTAYMELRSLRSDDTAVYYCARELGSSFDYWGQGTLVTVSS VL: SYELTQPPSVSVSPGQTARITCSGDALPKKYAYWYQQKSGQAPVLVIYEDIKRPSGIPERFSGSSSGTMATLTISGAQVEDEADYYCFSTDNSGDHSVFGGGTKLTVL | 0.157 | 0.85 | 0.17 | 2.01e-05 | 118000 | – | –
6 | 4B4 IgG2 (antibody, V domains shown, Formatted as IgG2) VH: QVLLIQSGAEVKKPGASVQVSCKASGYTFTNYGVIWVRQAPGQGLEYMGWISAYNGNTNYAQKLQDRVTMTSDTSTTTAYMELRSLRSDDTAVYYCARELGSSFDYWGQGTLVTVSS VL: SYELTQPPSVSVSPGQTARITCSGDALPKKYAYWYQQKSGQAPVLVIYEDIKRPSGIPERFSGSSSGTMATLTISGAQVEDEADYYCFSTDNSGDHSVFGGGTKLTVL | 0.232 | 1.19 | 0.336 | 3.6e-05 | 107000 | – | –
7 | 2H10 IgG2 VH wt/VL wt (antibody, V domains shown, IgG2, transiently expressed) VH: QVQLVESGGGVVQPGRSLRLSCAASGFTFSRHGMHWVRQAPGKGLEWVAVVWFDGSNIYYADSVKGRFTISRDNSKNTLYLQMNSLRAEDTAMYYCARDSRIAAADYWGQGTLVTVSS VL: SYELTQPPSVSVSPGQTVSITCSGDKLGDKYVCWYQQKPGQSPVLVIYQESKRPSGIPERFSGSSSGNTATLTISGTQAMDEADYYCQTWDSSLVVFGGGTKLTVL | – | – | – | – | – | 0.043 | 0.224
8 | 2H10 IgG2 VH wt/VL C33S (antibody, V domains shown, IgG2) VH: QVQLVESGGGVVQPGRSLRLSCAASGFTFSRHGMHWVRQAPGKGLEWVAVVWFDGSNIYYADSVKGRFTISRDNSKNTLYLQMNSLRAEDTAMYYCARDSRIAAADYWGQGTLVTVSS VL: SYELTQPPSVSVSPGQTVSITCSGDKLGDKYVSWYQQKPGQSPVLVIYQESKRPSGIPERFSGSSSGNTATLTISGTQAMDEADYYCQTWDSSLVVFGGGTKLTVL | – | – | – | – | – | 0.031 | 0.084
9 | 9G8 IgG2 VH L38W/VL S7P (antibody, V domains shown, IgG2) VH: QLQLQESGPGLVKPSETLSLSCTVSGGSISSSSSYWGWIRQPPGKGLEWIGSIYYSGSTYYSPSLKSRVSISVDTSKNQFSLKLSSVTAADTAVYFCARQGYGGHPDVFDIWGQGTMVTVSS VL: SSELTQPPSVSVSPGQTARITCSGDKLGDVYVCWYQQKTGQSPVLVIYEDTKRPSGIPERFSGSNSGNTATLTISGTQVMDEADYYCQAWDSTTAVIFGGGTKLTVL | – | – | – | – | – | 0.074 | 0.155
10 | 9G8 IgG2 VH L38W/VL wt (antibody, V domains shown, IgG2) VH: QLQLQESGPGLVKPSETLSLSCTVSGGSISSSSSYWGWIRQPPGKGLEWIGSIYYSGSTYYSPSLKSRVSISVDTSKNQFSLKLSSVTAADTAVYFCARQGYGGHPDVFDIWGQGTMVTVSS VL: SSELTQSPSVSVSPGQTARITCSGDKLGDVYVCWYQQKTGQSPVLVIYEDTKRPSGIPERFSGSNSGNTATLTISGTQVMDEADYYCQAWDSTTAVIFGGGTKLTVL | – | – | – | – | – | 0.07 | 0.133
